Experimental data as given in article PMC10815852, “A Non-Functional Carbon Dioxide-Mediated Post-Translational Modification on Nucleoside Diphosphate Kinase of Arabidopsis thaliana” (International Journal of Molecular Sciences, 2024).
“And” between values parts separate entries of the source, which are not always exact repeats. Identical values can stand only once.

T1: AtNDK1 (Arabidopsis nucleoside diphosphate kinase 1) (Arabidopsis thaliana, UniProt P39207)
T1 construct: gene NDK1; full open reading frame in pGEX6P-1 (BamHI/EcoRI, synthetic), GST tag cut with PreScission protease, E. coli T7 Express, size exclusion purified, hexamer
T1 sequence (P39207 1-149): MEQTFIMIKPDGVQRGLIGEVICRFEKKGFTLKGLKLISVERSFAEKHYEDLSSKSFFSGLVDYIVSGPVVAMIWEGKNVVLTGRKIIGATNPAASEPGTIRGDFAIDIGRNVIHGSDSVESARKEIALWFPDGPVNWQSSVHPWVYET


Legend:
[1] = molecular target: T1, AtNDK1 (Arabidopsis nucleoside diphosphate kinase 1); experiment: NDK assay, ATP formation by ATP determination kit; format: biochemical; details: substrate inhibition by ADP (fit of Michaelis-Menten data with 0-100 μM ADP); 50 μM GTP; 2 mM MgCl2, pH 7.6, 25 °C
[2] = molecular target: T1, AtNDK1 (Arabidopsis nucleoside diphosphate kinase 1); experiment: NDK assay, ATP formation by ATP determination kit; format: biochemical
[3] = molecular target: the molecule itself; experiment: SEC; analytical SEC, Superose 6 increase 10/300 GL; 30 mM Tris pH 7.9, 200 mM NaCl, 1 mM DTT, 1 mM EDTA; sample ~1 mg/mL, 100 uL injected; size and oligomeric state approximated from retention volume and a standard curve; self-association (hexamer, dimer)
[4] = molecular target: the molecule itself; experiment: as above; remark: listed apart in the source
[5] = substrate: Nc1nc2c(ncn2[C@@H]2O[C@H](COP(=O)(O)OP(=O)(O)OP(=O)(O)O)[C@@H](O)[C@H]2O)c(=O)[nH]1; experiment: NDK assay, ATP formation by ATP determination kit; format: biochemical, Arabidopsis thaliana; details: 35 μM ADP fixed, 0-100 μM GTP, 2 mM MgCl2, pH 7.6, 25 °C
[6] = substrate: Nc1ncnc2c1ncn2[C@@H]1O[C@H](COP(=O)(O)OP(=O)(O)O)[C@@H](O)[C@H]1O; experiment: NDK assay, ATP formation by ATP determination kit; format: biochemical, Arabidopsis thaliana; details: 50 μM GTP fixed, 0-100 μM ADP, substrate inhibition model, 2 mM MgCl2, pH 7.6, 25 °C

| Ki [1] [µM] | IC50 [2] [µM] | Molecule | stoichiometry N [3] | relative absorbance maximum of the (AtNDK1)2 peak [4] | relative absorbance maximum of the (AtNDK1)6 peak [4] | Km [5] [µM] | Km [6] [µM] |
| --- | --- | --- | --- | --- | --- | --- | --- |
| 132 |  | Nc1ncnc2c1ncn2[C@@H]1O[C@H](COP(=O)(O)OP(=O)(O)O)[C@@H](O)[C@H]1O [ADP] |  |  |  |  |  |
|  | 0.681 | Nc1nc2c(ncn2[C@@H]2O[C@H](COP(=O)(O)OP(=O)(O)OP(O)(O)=S)[C@@H](O)[C@H]2O)c(=O)[nH]1 [GTPγS, guanosine 5′-O-[γ-thio] triphosphate] |  |  |  |  |  |
|  |  | Arabidopsis thaliana nucleoside diphosphate kinase 1 (AtNDK1), wild-type (enzyme, UniProt P39207 1-149, looked up, Arabidopsis thaliana NDK1, open reading frame cloned into BamHI/EcoRI of pGEX6P-1; Hexamer by analytical SEC; also called WT AtNDK1; Arabidopsis NDK1; source: E. coli T7 express, purified (GSTrap, PreScission cleavage, glutathione agarose, SEC); not shown: GST, N-terminal, cleaved) MEQTFIMIKPDGVQRGLIGEVICRFEKKGFTLKGLKLISVERSFAEKHYEDLSSKSFFSGLVDYIVSGPVVAMIWEGKNVVLTGRKIIGATNPAASEPGTIRGDFAIDIGRNVIHGSDSVESARKEIALWFPDGPVNWQSSVHPWVYET | 6 | 0.1 | 1 | 22.4 | 24.6 |
|  |  | AtNDK1-K9R (enzyme, Arabidopsis thaliana, UniProt P39207 1-149, looked up, Arabidopsis thaliana NDK1, mutant open reading frame cloned into BamHI/EcoRI of pGEX6P-1; Elutes as a mix of hexamer and dimer by analytical SEC; source: E. coli T7 express, purified (GSTrap, PreScission cleavage, glutathione agarose, SEC); not shown: GST, N-terminal, cleaved) MEQTFIMIRPDGVQRGLIGEVICRFEKKGFTLKGLKLISVERSFAEKHYEDLSSKSFFSGLVDYIVSGPVVAMIWEGKNVVLTGRKIIGATNPAASEPGTIRGDFAIDIGRNVIHGSDSVESARKEIALWFPDGPVNWQSSVHPWVYET | 6 and 2 | 0.25 | 1 |  |  |
|  |  | AtNDK1-K9E (enzyme, Arabidopsis thaliana, UniProt P39207 1-149, looked up, Arabidopsis thaliana NDK1, mutant open reading frame cloned into BamHI/EcoRI of pGEX6P-1; Elutes as a mix of hexamer and dimer by analytical SEC, dimer peak the larger; source: E. coli T7 express, purified (GSTrap, PreScission cleavage, glutathione agarose, SEC); not shown: GST, N-terminal, cleaved) MEQTFIMIEPDGVQRGLIGEVICRFEKKGFTLKGLKLISVERSFAEKHYEDLSSKSFFSGLVDYIVSGPVVAMIWEGKNVVLTGRKIIGATNPAASEPGTIRGDFAIDIGRNVIHGSDSVESARKEIALWFPDGPVNWQSSVHPWVYET | 6 and 2 | 1 | 0.4 |  |  |
|  |  | AtNDK1-K9A (enzyme, Arabidopsis thaliana, UniProt P39207 1-149, looked up, Arabidopsis thaliana NDK1, mutant open reading frame cloned into BamHI/EcoRI of pGEX6P-1; Elutes as a mix of hexamer and dimer by analytical SEC; source: E. coli T7 express, purified (GSTrap, PreScission cleavage, glutathione agarose, SEC); not shown: GST, N-terminal, cleaved) MEQTFIMIAPDGVQRGLIGEVICRFEKKGFTLKGLKLISVERSFAEKHYEDLSSKSFFSGLVDYIVSGPVVAMIWEGKNVVLTGRKIIGATNPAASEPGTIRGDFAIDIGRNVIHGSDSVESARKEIALWFPDGPVNWQSSVHPWVYET | 6 and 2 | 0.73 | 1 |  |  |
